How the values were obtained:
[1] = test system: human-derived bone marrow mesenchymal stem cells (hMSC); experiment: Migration assay on human-derived bone marrow mesenchymal stem cells; format: cell-based; conditions: human HMGB1 fragments produced in E. coli, 2 μM, FIG. 21B
Description: Human HMGB1 fragments (2-215, 2-84, 2-44, 45-84, 85-169, 89-185, 89-195, and 89-205) were produced in E. coli and purified using appropriate columns in the same manner as described in Examples 14, 15, and 16 above. However, 89-215 was purified by the same method as used for 89-205 in Example 15.
Using human-derived bone marrow mesenchymal stem cells, each fragment was examined by the same migration assay performed on mouse-derived bone marrow mesenchymal stem cells (MSC-1) as described above. The fragments were used at a final concentration of 2 μM. The human-derived bone marrow mesenchymal stem cells used were hMSC (human Mesenchymal Stem Cell, Takara) at fourth passage. The growth medium used was a mesenchymal stem cell growth medium (MF medium, TOYOBO). The cells were cultured in an incubator under 5% CO2 at 37° C. The medium was changed with a fresh medium every two to four days. The cells were passaged when they reached 80% confluency.

[2] = test system: mouse bone marrow mesenchymal stem cell line (MSC-1 cells), PDGFRα-positive; experiment: Migration assay (Boyden / 48-well chemotaxis chamber) on bone marrow mesenchymal stem cell line MSC-1; format: cell-based; conditions: for migration-promoting activity per equal mass, 2-215 taken as 1 / migration-promoting activity per molar concentration, 2-215 taken as 1: FIGS. 18C and 18D
How it was run: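 Mouse MSC-1 cells (3×10^6 cells/ml in D-MEM with 10% FBS) loaded in the upper wells of a 48-well Boyden chamber with 8 μm polycarbonate membrane; mouse HMGB1 peptides or HEK293-made HMGB1 in lower wells at 100 μg/ml, 5 μM or 10 μM; PBS as negative control. After 4 h at 37° C, migrated cells were Diff-Quik stained.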

[3] = human HMGB1 fragments produced in E. coli, 2 μM, FIG. 18B
[4] = human HMGB1 fragments produced in E. coli, 2 μM
[5] = human HMGB1 fragments 89-215, 89-205, 89-195, 89-185 and their Q column fractions, E. coli, 2 μM, FIGS. 19B and 19D
[6] = produced in E. coli, 2 μM, FIGS. 20B and 20C

Row | Molecule | migration-promoting activity [1] | migration-promoting activity [2, 3] | migration-promoting activity per equal mass, 2-215 taken as 1 [2, 4] [times] | migration-promoting activity per molar concentration, 2-215 taken as 1 [2, 4] [times] | migration-promoting activity ([2]; protein and peptides produced using HEK293 (mouse HMGB1), 50 μg/ml, 4 h, FIG. 2A) | migration-promoting activity [2, 5] | migration-promoting activity ([2]; fragment 2-84 and fusions with acidic tail fragments, produced in E. coli, FIG. 21D) | migration-promoting activity compared with 2-215 ([2]; produced in E. coli, 2 μM, FIG. 20A) | migration-promoting activity per equal mass (reference taken as 1) [2, 6] [times] | migration-promoting activity per molar (reference taken as 1) [2, 6] [times]
1 | 2-44: human HMGB1 fragment, positions 2 to 44, produced in E. coli (GKGDPKKPRGKMSSYAFFVQTCREEHKKKHPDASVNFSEFSKK; UniProt P09429 2-44, looked up, fragment) | greater than human HMGB1 fragment (2-215) | showed migration-promoting activity on bone marrow mesenchymal stem cells | 7.1 | 1.82 |  |  |  |  |  | 
2 | 45-84: peptide of positions 45 to 84 of mouse HMGB1, produced using HEK293 (CSERWKTMSAKEKGKFEDMAKADKARYEREMKTYIPPKGE; UniProt P63158 45-84, looked up, fragment) | greater than human HMGB1 fragment (2-215) | showed migration-promoting activity on bone marrow mesenchymal stem cells | 8.1 | 2.04 | showed migration-promoting activity |  |  |  |  | 
3 | 89-185: human HMGB1 fragment, positions 89 to 185, produced in E. coli (protein, UniProt P09429 89-185, looked up, fragment) FKDPNAPKRPPSAFFLFCSEYRPKIKGEHPGLSIGDVAKKLGEMWNNTAADDKQPYEKKAAKLKEKYEKDIAAYRAKGKPDAAKKGVVKAEKSKKKK | exhibited stronger activity |  |  |  |  | stronger activity than any fragments between positions 89 and 215 |  |  |  | 
4 | 2-84: human HMGB1 fragment, positions 2 to 84, produced in E. coli (protein, UniProt P09429 2-84, looked up, fragment) GKGDPKKPRGKMSSYAFFVQTCREEHKKKHPDASVNFSEFSKKCSERWKTMSAKEKGKFEDMAKADKARYEREMKTYIPPKGE | greater than human HMGB1 fragment (2-215) | showed migration-promoting activity on bone marrow mesenchymal stem cells | 5.5 | 2.37 |  |  | exhibited migration-promoting activity |  |  | 
5 | 89-195: human HMGB1 fragment, positions 89 to 195, produced in E. coli (protein, UniProt P09429 89-195, looked up, fragment) FKDPNAPKRPPSAFFLFCSEYRPKIKGEHPGLSIGDVAKKLGEMWNNTAADDKQPYEKKAAKLKEKYEKDIAAYRAKGKPDAAKKGVVKAEKSKKKKEEEEDEEDEE | exhibited stronger activity |  |  |  |  | stronger activity than any fragments between positions 89 and 215 |  |  |  | 
6 | Human HMGB1 fragment (85-169): human HMGB1 fragment, positions 85 to 169, produced in E. coli (protein, UniProt P09429 85-169, looked up, fragment) TKKKFKDPNAPKRPPSAFFLFCSEYRPKIKGEHPGLSIGDVAKKLGEMWNNTAADDKQPYEKKAAKLKEKYEKDIAAYRAKGKPD | greater than that of human HMGB1 fragment (2-215) |  |  |  |  |  |  | stronger migration-promoting activity on bone marrow mesenchymal stem cells than human HMGB1 fragment (2-215) | 3.6 | 1.59

Reference: patent publication US10550165B2, “Peptide for inducing regeneration of tissue and use thereof” (STEMRIM INC., priority 2011, dated 2020)
